Assay results published in PMC7867654.

Experiments:
Experiment in all cases: EMSA
[1] = target: T1, PRC2-PHF19 (PRC2.1, 5-mer) (Homo sapiens, UniProt Q15910-2;O75530;Q15022;Q09028;Q5T6S3 1-751;1-441;1-739;1-425;1-580)
[2] = target: PRC2-AEBP2 (PRC2.2, 5-mer) (Homo sapiens, UniProt Q15910-2;O75530;Q15022;Q09028;Q6ZN18 1-751;1-441;1-739;1-425;1-517)
[3] = target: T1, PRC2-PHF19 (PRC2.1, 5-mer); remark: listed apart in the source

B1: 96 bp (dsDNA)
DNA 1: TGAATTAGTGTCAATATCCCTACTTCAATTTCCTAGTATATATTAAGTAGGTAGATGCTCCTAGTACTCTGGGTTTTATTTTCTCAACCACCACCA
DNA 2: TGGTGGTGGTTGAGAAAATAAAACCCAGAGTACTAGGAGCATCTACCTACTTAATATATACTAGGAAATTGAAGTAGGGATATTGACACTAATTCA
binding result [1]: binds

B2: 24 bp LHX6 (dsDNA)
DNA 1: ACGCGCGCCGGGAAATTGAAGCGG
DNA 2: CCGCTTCAATTTCCCGGCGCGCGT
binding result [2]: no binding | binding signal [3]: ~5 fold tighter than 24 bp ATrich; weaker than 48 bp

B3: 48 bp LHX6 (dsDNA)
DNA 1: GCGCTAGGAGCATCCGCCCGCTCGACGCGCGCCGGGAAATTGAAGCGG
DNA 2: CCGCTTCAATTTCCCGGCGCGCGTCGAGCGGGCGGATGCTCCTAGCGC
binding result [2]: no binding

B4: 96 bp ATrich (dsDNA)
DNA 1: TATATTTTATATATATATAAATTAATATATAATTATATTATATTAAAATTAATATTATATTTAAATTATTATATATATATAAATAATTTAATTATA
DNA 2: TATAATTAAATTATTTATATATATATAATAATTTAAATATAATATTAATTTTAATATAATATAATTATATATTAATTTATATATATATAAAATATA
binding result [1]: binds

B5: 12 bp GC (dsDNA)
DNA 1: GGGCGGCCGCCC
DNA 2: GGGCGGCCGCCC
binding result [1]: no binding

B6: 36 bp ATrich (dsDNA)
DNA 1: TATATAAATTAATATATAATTATATTATATTAAAAT
DNA 2: ATTTTAATATAATATAATTATATATTAATTTATATA
binding result [2]: no binding

B7: 48 bp ATrich (dsDNA)
DNA 1: ATATTTTATATATATATAAATTAATATATAATTATATTATATTAAAAT
DNA 2: ATTTTAATATAATATAATTATATATTAATTTATATATATATAAAATAT
binding result [2]: no binding

B8: 36 bp LHX6 (dsDNA)
DNA 1: TCCGCCCGCTCGACGCGCGCCGGGAAATTGAAGCGG
DNA 2: CCGCTTCAATTTCCCGGCGCGCGTCGAGCGGGCGGA
binding result [2]: no binding

B9: 24 bp ATrich (dsDNA)
DNA 1: TATATAATTATATTATATTAAAAT
DNA 2: ATTTTAATATAATATAATTATATA
binding result [2]: no binding | binding signal [3]: ~5 fold weaker than 24 bp LHX6
